Data on four molecules can be found in patent US20090291504A1.

Data set [1] concerns the target Cre fragments alpha5 + beta1 (Casanova et al. 2003) (bacteriophage P1?) (UniProt P06956+P06956). Kind of data set: cell_activity. The note with it: HEK293 GFP reporter.
In data set [2] the test system is Cre fragment β1 (reported in Casanova et al., 2003).
In data set [3] the target is nlcCre (cCre with an extra SV40 large T antigen NLS) (Simian Virus 40; bacteriophage P1) (UniProt P06956). Kind of data set: cell-based or functional assay.
The target in data set [4] is cCre (C-terminal half of Cre fused at its N-terminus to the C-peptide leucine zipper) (bacteriophage P1) (UniProt P06956). Kind of data set: cell-based or functional assay.
Data set [5] deals with T1, C-terminal Cre fragment identical to that in cCre, without leucine zipper peptide, P06956.
T1 chain: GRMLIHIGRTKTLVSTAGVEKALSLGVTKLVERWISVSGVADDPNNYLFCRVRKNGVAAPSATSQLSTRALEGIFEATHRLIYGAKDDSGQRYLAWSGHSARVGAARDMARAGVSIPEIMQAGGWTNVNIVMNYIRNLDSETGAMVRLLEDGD

Some results are limits rather than exact numbers.

“ATAACTTCGTATAATGTATGCTATACGAAGTTAT (double strand) [loxP]”: in data set [1], the Cre recombinase activity relative to intact Cre is below 2%.
As to “Cre fragment α5 (reported in Casanova et al., 2003)”, the “Cre activity recovered from fragments lacking protein interaction motifs (tissue culture)” value in data set [2] is reported as “less than 2% Cre activity was recovered”.
“nCre (N-terminal half of Cre with an N-terminal SV40 large T antigen NLS, fused at its C-terminus to the N-peptide leucine zipper) (from UniProt P06956 1-190) (enzyme)”: the Cre activity recovered (GFP/mCherry reporter, flow cytometry, co-transfected HEK293 cells) in data set [3] is 27.2%. Further, the recombinase activity of intact Cre molecule reconstituted (GFP/mCherry reporter, flow cytometry, co-transfected HEK293 cells) in data set [4] was found to be 12.1%.

B1: N-terminal Cre fragment identical to that in nCre, without leucine zipper peptide (protein)
chain: MSNLLTVHQNLPALPVDATSDEVRKNLMDMFRDRQAFSEHTWKMLLSVCRSWAAWCKLNNRKWFPAEPEDVRDYLLYLQARGLAVKTIQQHLGQLNMLHRRSGLPRPSDSNAVSLVMRRIRKENVDAGERAKQALAFERTDFDQVRSLMENSDRCQDIRNLAFLGIAYNTLLRIAEIARIRVKDISRTDG
In the case of B1, in data set [5], the “Cre activity generated by co-expression of fragments without interaction motifs (tissue culture)” value is on record as “less than 0.5% of Cre activity”.
